# Measured values: paper PMC9123187
# Key:
# [1] = biological target: Type I-D Cascade WT (assay sample) (Synechocystis) (UniProt Q6ZEI7+Q6ZEI6+Q6ZEI5+Q6ZEI7); experiment: EMSA; conditions: EMSA: 10 mM HEPES-NaOH pH 7.5, 100 mM KCl, 5% glycerol, 1 mM DTT, 0.01% Triton X-100, 1 µg BSA, 0.1 µg poly(dI.dC) (dsDNA) or 0.26 µg E. coli tRNA (ssRNA) in …
# [2] = biological target: Cas7d, backbone subunit of type I-D Cascade (Synechocystis); experiment: cryo-EM structure; type I-D Cascade (co-expressed subunits with crRNA, purified as a complex) bound to a dsDNA target with GTT PAM, 1:2 Cascade:target, 30 °C 30 min; 2.9 Å
# [3] = biological target: Cas11d, small subunit of type I-D Cascade (Synechocystis); experiment: as above
Substance,Kd [1] [nM],further results
GCAUGACGGAUCGAGGCAUUGAAAGCGACCGCCAGGGGCACAACAAUCACGGUGAUACUA / ACUGAAACGAUUGUUGUGCCCCUGGCGGUCGCUUUCAAUGCCU [PF5591 ACG-PFS ssRNA + crRNA],11,–
"Cas7d, backbone subunit of type I-D Cascade (natural protein)",–,stoichiometry N [2]: 7
"Cas11d, small subunit of type I-D Cascade (natural protein)",–,stoichiometry N [3]: 2
GCAUGACGGAUCGAGGCAUUGAAAGCGACCGCCAGGGGCACAACAAUCAACGUGAUACUA / ACUGAAACGAUUGUUGUGCCCCUGGCGGUCGCUUUCAAUGCCU [PF3167 AAC-PFS ssRNA + crRNA],11,–
